According to the supplement of paper PMC9170038:

Test system: MS2 coat protein
Test: apparent KD of MS2 coat protein; designed switch direction (-1 OFF switch, 1 ON switch): -1; higher = weaker reporter binding
How it was run: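 For each design, the apparent KD is the median over clusters of curves fitted to normalised cluster fluorescence. Clusters held RNA switches with common flanks, transcribed on Illumina chips by stalled E. coli RNA polymerase. These were titrated with SNAP-549-labelled MS2 coat protein, doubling from 0.7 or 1.5 nM to 3 µM, without input, with 200 uM small-molecule ligand, or with an oligonucleotide input.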

[1] = Eterna round: R95, input ligand: microRNA oligo, concentration not stated
[2] = Eterna round: R95, input ligand: FMN 200 uM
[3] = Eterna round: R95, input ligand: none
[4] = input ligand: microRNA oligo, concentration not stated

Sequence	apparent KD of MS2 coat protein [1]	apparent KD of MS2 coat protein (input ligand: FMN 200 uM)	apparent KD of MS2 coat protein (input ligand: none)	apparent KD of MS2 coat protein [2]	apparent KD of MS2 coat protein [3]	apparent KD of MS2 coat protein [4]
GAGGAGCAAGGAUAUACGAGGAUAGGGAAGGUUGGAGAGUGACAUGAGGAUCACCCAUGUAGAAGGUGCAAGGG [JR_Exclu2_Sub095] (puzzle: Exclusion 2)	108 nM	–	–	–	–	–
GAGUACUGAGGAUAUACAUGAGGAUCACCCAUGUGUUCCAACUAGGAAUCUAGAAUAUGUAGAAGGCAGUGCUG [salish99_ex3_r4_702] (Eterna round: R97, puzzle: Exclusion 3)	–	71.3 nM	123 nM	–	–	–
GAGUAGUAAGGAUAUAGUAGGAGGGAGAAGUGAGGAGAGAACUAGAAGGUACAUGAGGAUCACCCAUGUUGAGA [JR_Exclu4_Sub084] (puzzle: Exclusion 4)	19.2 nM	–	–	24.3 nM	19.5 nM	–
GAGUCUCGAAAGGAUAUUUAGGUGUAUGCAGGUAGAGAAGGUUCGACAUGAGGAUCACCCAUGUAAUGGUUUCC [Eternabot (L2) Solution 25] (Eterna round: R97, puzzle: Exclusion 6)	–	157 nM	84 nM	–	–	–
GAGUGCUAAGGAUAUACAUGAGGAUCACCCAUGUGCUUCAGCUAGGAGACUAGCAUUGGUAGAAGGUAGUACUC [Mod of lroppy 2 - Jieux - Exclusion 3] (Eterna round: R97, puzzle: Exclusion 3)	–	60.3 nM	14.7 nM	–	–	–
GAUAGAGAGCAGGAUAUCUUGGAUAAGUGUUGUAGAGAAGGGCUCACAUGAGGAUCACCCAUGUGGUCCUAGAU [JL Dibiri mod 09] (puzzle: Exclusion 6)	13.2 nM	–	–	37.5 nM	14.3 nM	–
GAUAGAGAGCAGGAUAUCUUGGGUAAGUAUCGUAGAGAAGGGCUCACAUGAGGAUCACCCAUGUGGUCCUAGAU [JL Dibiri mod 03] (puzzle: Exclusion 6)	11.5 nM	–	–	–	–	–
GAUAGAGAGCAGGAUAUCUUGGGUAAGUGUUGUAGAGAAGGGCUCACAUGAGGAUCACCCAUGUGGUCCUAGAU [JL Dibiri mod 08] (puzzle: Exclusion 6)	14.5 nM	–	–	33.5 nM	11.3 nM	–
GAUCAACAUGAGGAUCACCCAUGUGAGGAUAUGAUACUAUGUACUUCGGUACAUAGUAUCAGAAGGCAUAUAAA [Ex1-3: 37] (puzzle: Exclusion 1)	40.4 nM	–	–	–	–	–
GAUCAUGCAGGAUAUACAUGUUCCAUGAAAACAUGGUCCUCACAUGAGGAUCACCCAUGUAGAAGGGCAUGAUC [Omei Ex2 A31] (Eterna round: R97, puzzle: Exclusion 2)	–	132 nM	1450 nM	–	–	–
GAUCCUAGUGUCAGGAUAUGCGAACAAACGCCAAAGCAGAAGGGACUUGAGGAUCACCCAAGUCGCGAUGCGAC [Arbiaran] (Eterna round: R97, puzzle: Brourd's mod of Exclusion 4)	–	257 nM	45.1 nM	–	–	–
GAUGAAAGAGUCAGGAUAUAUAACCACGACGGCUUGUAGAAGGGACAUGAGGAUCACCCAUGUGAUGGAAUGAU [Eternabot (L2) Solution 13] (Eterna round: R97, puzzle: Brourd's mod of Exclusion 4)	–	64 nM	43.6 nM	–	–	–
GAUGAGGUAGGAUAUACGAUAAUAUAGGGUAGAUAUAUAACACAUGAGGAUCACCCAUGUAGAAGGACCAGGAG [Mat - Exclusion 2 - Mod of my Tesla design - D65] (puzzle: Exclusion 2)	28.1 nM	–	–	77.3 nM	36.1 nM	–
GAUUAACAUGAGGAUCACCCAUGUGAGGAUAUGAACUUGCCCACUUACCCUUUAGAGUUUAGAAGGCGCAUUCU [1986#33] (Eterna round: R97, puzzle: Exclusion 1)	–	22.4 nM	28.2 nM	–	–	–
GAUUAGCGAGGAUAUACAUGAGGAUCACCCAUGUGAUCCUAAGGCUGAUCAAGCCUAUGUAGAAGGCGCAAAUC [salish99_ex3_r5_001] (Eterna round: R97, puzzle: Exclusion 3)	–	35.2 nM	224 nM	–	–	–
GAUUAUGCGAGCUUUAGGGACAUGAGGAUCACCCAUGUUCGUCUUAUUAAUCUGGGUGCACUGACAUACCUAAAUCU [JMF 92] (puzzle: Sensor v3, turn-off variant 1)	81.9 nM	–	–	90.9 nM	132 nM	–
GAUUAUGCGAGCUUUAGGGACAUGAGGAUCACCCAUGUUCGUCUUAUUAGUCUAAAUACGCUGACAUACCUAAAUCU [JMF 94] (puzzle: Sensor v3, turn-off variant 1)	18 nM	–	–	14 nM	18.2 nM	–

Sequence	apparent KD of MS2 coat protein [1]	apparent KD of MS2 coat protein (input ligand: FMN 200 uM)	apparent KD of MS2 coat protein (input ligand: none)	apparent KD of MS2 coat protein [2]	apparent KD of MS2 coat protein [3]	apparent KD of MS2 coat protein [4]
GAUUAUGCGAGCUUUAGGGACAUGAGGAUCACCCAUGUUCGUCUUAUUAGUCUAGAUGCACUGACAUACCUAAAUCU [JMF 78] (puzzle: Sensor v3, turn-off variant 1)	19.6 nM	–	–	15 nM	14.4 nM	–
GAUUAUGCGAGCUUUAGGGACAUGAGGAUCACCCAUGUUCGUCUUAUUGAUCUAAGUGCACUAACAUACCUAAAUCU [JMF 29] (puzzle: Sensor v3, turn-off variant 1)	53.7 nM	–	–	25.1 nM	27 nM	–
GAUUAUGCGAGCUUUAGGGACAUGAGGAUCACCCAUGUUCGUCUUAUUGAUCUAGGUACGCUGACGUACCUAGAUCU [JL-sv1-2.35 Brourd mod] (puzzle: Sensor v3, turn-off variant 1)	33.7 nM	–	–	21.9 nM	21.8 nM	–
GAUUAUGCGAGCUUUAGGGACAUGAGGAUCACCCAUGUUCGUCUUAUUGGUCUGAGUGCACUGACAUACCUAAAUCU [JMF 86] (puzzle: Sensor v3, turn-off variant 1)	30.9 nM	–	–	19.4 nM	19.9 nM	–
GAUUAUGCGAGCUUUAGGGACAUGAGGAUCACCCAUGUUCGUCUUAUUGGUCUGGAUACGCUAACAUACCUAAAUCU [JMF 38] (puzzle: Sensor v3, turn-off variant 1)	30.6 nM	–	–	21.5 nM	24.8 nM	–
GAUUAUGCGAGCUUUAGGGACAUGAGGAUCACCCAUGUUCGUCUUAUUGGUCUGGAUGCGCUAACAUACCUAAAUCU [JMF 46] (puzzle: Sensor v3, turn-off variant 1)	31.7 nM	–	–	22.4 nM	22.6 nM	–
GAUUAUGCGAGCUUUAGGGACAUGAGGAUCACCCAUGUUCGUCUUGUUGAUCUAGGUACACUAACAUACCUAAAUCU [JMF 16] (puzzle: Sensor v3, turn-off variant 1)	28.5 nM	–	–	19.9 nM	21.9 nM	–
GAUUGACAUGAGGAUCACCCAUGUGAGGAUAUCGGCCGGACCUUGUUAGCUUCCGUCGCGAGAAGGCGCAUAGG [Exclusion 1 V37] (puzzle: Exclusion 1)	39.9 nM	–	–	62.6 nM	33.2 nM	–
GCAAGCUUAAUCAGUAUGAACAUGAGGAUCACCCAUGUAUAAGGUAAUCCUUUUGGGCCCUUUAUUACUCGUCUUAU [JR_STOV1_Sub028] (Eterna round: R97, puzzle: Sensor, turn-off variant 1)	–	322 nM	405 nM	–	–	–
GCAAGCUUUUCGAUCCUCGACAUGAGGAUCACCCAUGUGCUCGAAUUGUUUAGUACUAUCACGAAAGUGAUAGUACA [Sensor, turn off variant 1 v.3] (Eterna round: R97, puzzle: Sensor, turn-off variant 1)	–	1570 nM	1570 nM	–	–	–
GCAAGCUUUUUCAAUAAGAACAUGAGGAUCACCCAUGUUUAAGGUAUUACUUUUGGGCUCUUUAGUGCUAGUCUUAU [JR_STOV1_Sub036] (Eterna round: R97, puzzle: Sensor, turn-off variant 1)	–	45.9 nM	45.5 nM	–	–	–
GCACGAAGUGGAGGAUAUCUGGGCGAGGAGCGCAGAGAAGGCCACAUGAGGAUCACCCAUGUUUUCCACGGAUAGCAAACGUGC [exng1 ex2.1] (Eterna round: R96, puzzle: Exclusion NG 1)	–	25.5 nM	23 nM	–	–	15.2 nM
GCACGAAGUGUAGGAUAUCUGUGCGAUUAGCUCAGAGAAGGACACAUGAGGAUCACCCAUGUGUUUCACGGAAACGAAACGUGC [Eli exng1 - 054] (Eterna round: R96, puzzle: Exclusion NG 1)	–	10.7 nM	16.2 nM	–	–	9.54 nM
GCACGAUAUCAGGAUAUGACUAGCUUCGGCUAGUCAGAAGGGAUGACAUGAGGAUCACCCAUGUGAUCACGUGC [E6/1-B1] (Eterna round: R97, puzzle: Exclusion 6)	–	79.6 nM	60.5 nM	–	–	–
GCACGGAGUGUAGGAUAUCUGUGCGAUUAGCUCAGAGAAGGACACAUGAGGAUCACCCAUGUGUAACUCAACAAUAAUCCGUGC [Eli exng1 - 073] (Eterna round: R96, puzzle: Exclusion NG 1)	–	18.3 nM	11.9 nM	–	–	8.53 nM
GCACGGAGUGUAGGAUAUUAGUGCGAUUAGCACUGAGAAGGACAUGAGGAUCACCCAUGUUCCUCGAUAAAAUACCUUCCGUGC [Eli exng1 - 041] (Eterna round: R96, puzzle: Exclusion NG 1)	–	13.2 nM	11.8 nM	–	–	7.59 nM
GCACGGUAAGUGAGGAUAUACCUCUGGAUACAGAGGUAGAAGGCACAUGAGGAUCACCCAUGUCUAAACCGUGC [Fiskers BMX 4 - 82] (puzzle: Brourd's mod of Exclusion 4)	18.6 nM	–	–	24.9 nM	18 nM	–
